Assay results taken from publication PMC5768706, “Structural basis for chitin acquisition by marine Vibrio species” (Nature Communications, 2018).
One block for each compound: values may come before it.

Experiments:
[1] = molecular target: T1, VhChiP (OM-expressed, native) (Vibrio harveyi, UniProt L0RVU0); assay: single-channel electrophysiology, planar lipid bilayer, ion current block titration; assay type: binding; conditions: 1 M KCl, 20 mM HEPES pH 7.5, 25 °C, -100 mV, sugar on cis side; range printed jointly for both full-length channels
T1 construct: gene chiP; full-length mature protein after signal peptide processing, no His-tag, pET23d(+), expressed in outer membrane of E. coli BL21(DE3) omp8 rosetta, homotrimer
T1 sequence (L0RVU0 26-375): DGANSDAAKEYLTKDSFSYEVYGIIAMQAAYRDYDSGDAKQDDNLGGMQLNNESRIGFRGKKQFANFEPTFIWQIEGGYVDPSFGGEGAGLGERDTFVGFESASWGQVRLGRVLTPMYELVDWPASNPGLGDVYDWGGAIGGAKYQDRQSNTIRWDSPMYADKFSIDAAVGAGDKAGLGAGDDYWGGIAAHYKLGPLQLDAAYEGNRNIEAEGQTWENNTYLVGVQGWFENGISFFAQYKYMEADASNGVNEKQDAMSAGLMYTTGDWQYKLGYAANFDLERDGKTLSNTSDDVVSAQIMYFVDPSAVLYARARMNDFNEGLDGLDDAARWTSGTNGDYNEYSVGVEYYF

[2] = molecular target: T1, VhChiP (OM-expressed, native); assay: X-ray crystal structure of co-crystals; assay type: binding; conditions: 10 mM GlcNAc4, 0.1 M MES pH 6.5, 28% PEG 400
[3] = molecular target: OM-expressed VhChiP (chitoporin from Vibrio harveyi) (Vibrio harveyi); assay: crystal structure; OM-expressed VhChiP, 10 mg/mL, 0.4% C8E4; space group C2: 28% PEG 400, 0.2 M sodium acetate, 0.1 M MES pH 6.5
[4] = molecular target: OM-expressed VhChiP (chitoporin from Vibrio harveyi) (Vibrio harveyi); assay: SDS-PAGE of non-boiled and boiled samples; purified protein loaded non-boiled and boiled; heat-modifiable mobility
[5] = molecular target: in vitro-folded VhChiP (Vibrio harveyi); assay: as above
[6] = molecular target: in vitro-folded VhChiP (Vibrio harveyi); assay: crystal structure; in vitro-folded SeMet VhChiP, ~12 mg/mL, 0.4% C8E4; crystal form I P2_(1): 30% PEG 400, 0.05 M NaCl, 0.1 M sodium citrate pH 5.5; crystal form II: 28% PEG 400, 0.5 M potassium iodide, 0.1 M Tris pH 8.5

Compound: CC(=O)N[C@H]1[C@H](O[C@H]2[C@H](O)[C@@H](NC(C)=O)[C@H](O[C@H]3[C@H](O)[C@@H](NC(C)=O)C(O)O[C@@H]3CO)O[C@@H]2CO)O[C@H](CO)[C@@H](O[C@@H]2O[C@H](CO)[C@@H](O[C@@H]3O[C@H](CO)[C@@H](O[C@@H]4O[C@H](CO)[C@@H](O)[C@H](O)[C@H]4NC(C)=O)[C@H](O)[C@H]3NC(C)=O)[C@H](O)[C@H]2NC(C)=O)[C@@H]1O (stereo partly drawn) [chitohexaose]
K [1]: 2–5 × 10^5

Compound: CC(=O)N[C@H]1[C@H](O[C@H]2[C@H](O)[C@@H](NC(C)=O)C(O)O[C@@H]2CO)O[C@H](CO)[C@@H](O[C@@H]2O[C@H](CO)[C@@H](O[C@@H]3O[C@H](CO)[C@@H](O)[C@H](O)[C@H]3NC(C)=O)[C@H](O)[C@H]2NC(C)=O)[C@@H]1O (stereo partly drawn) [chitotetraose]
X-ray crystal structure of co-crystals [2]: we co-crystallized OM-expressed VhChiP with chitotetraose (GlcNAc4)

stoichiometry N [3]: 3 | stoichiometry N [4]: 3
Compound: OM-expressed VhChiP (chitoporin from Vibrio harveyi) (natural protein)

stoichiometry N [5]: 3 | stoichiometry N [6]: 3
Compound: in vitro-folded VhChiP (natural protein)
